Results from the supplement of paper PMC9170038.

What follows are sequences tested on K4 kissing-loop RNA reporter (assay: apparent KD of K4 kissing-loop reporter; higher = weaker reporter binding). Settings: Eterna round: R107; input ligand: arginine 13.2 mM.
Experimental: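 RNA-MaP round R107: designed RNA switches with theophylline, tryptophan, arginine or FMN aptamers are transcribed on-chip within common flanks. They are titrated with a labelled K4 kissing-loop RNA reporter in RNA-MaP buffer (100 mM Tris pH 7.5, 80 mM KCl, 4 mM MgCl2), without ligand or with the indicated ligand. Median apparent KD per design.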
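Also: bound reporter read as fluorescence of individual clusters on recovered sequencing chips by microscopy, with normalized cluster intensities fitted with a binding model.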

Row | Sequence | apparent KD of K4 kissing-loop reporter [nM]
1 | ACAGCGAGCAUUAACGCGCUCGCAGGUUGCAAGGAUAUAUUUCGUCAUAGAAGGUGCUAGACCAUAAGUGAUGUUUGUGGAUAUA [theeternabot_sameState_KL_FMN_A_16] | 396
2 | AGGCAAUAUGCGGCCGCCACUUUCAGUGAUGUUGAGACGCGGAAUGUUGUAUAAUAUCGCCACGAAAGGACCGGGCAAGGGAAAG [theeternabot_exclusion_KL_Trp_B_5] | 434
3 | GGCAGUGAUGUUGCCAGUGGCAGAUUGGAAGGAGCGUGGUGAGACACAGGUAGGUCGCUAAUUGAAGUUGCUGUCACUAAAAUGC [whbob_Ex_Arginine_A_2t131] | 299
4 | GGAGGCUAUGCAGGAUAUAGUCGGUUGAGUGAUGUUUAACGACUAAACCUUCUAAGUCACAGCCCGCUAGAAGGGCAUAGCCUCC | 225
5 | GCAUCGAUGGCAGGAUAUAGGUUCGUGGAGUGAUGUUCCAUAGCCCGAGUGAUGUUCGUUAUCCGCCUAGAAGGGCCGUGGAUGC [whbob_Ex_FMNB__2th215] | 210
6 | CAGAACUUAUAUAGAAACUAUAUAAGAGAUACCAGUCAAAUUAAAGACCCUUGGCAGCUCAGGCGAGUGAUGUUCGCAGGCUAAC [Astros-Gfrank-modulation#1] | 94.2
7 | GGCUUGCCAGUGAUGUUGGCAUAAACUGAAGGAGCGCGUGAAAACGCAGGUAGGUCGCAGAACCUUGCCAACUAUUUUAUUUGCC [Ex Arginine A K4 24] | 223
8 | GGGUCAGUCUGAAGGAGCGGCCAGACAGAGCAGUGAUGUUGCUCCUCCGGAAACGGUGUCGGCCAGGUAGGUCGCAGAUUGGCUC [Dienralais mod v1] | 122
9 | UGUCAUUGGUCGGCCGCCACUUCGUGUGGAGUGAUGUUUUGUAGGUUGUGUUGAAAGGUAUGGUGAAGGACCGGGACCGAUGACU [FiskerMod 20 - Jieux - Same State - Tryptophan B] | 384
10 | AUGUCUGAUAGCAGUGAUGUUGCUUCGGAUACCAGACGAGAUCAUGUCCCUUGGCAGCUGACACGGCACGUGCUAGGUUAGAUGA [whbob_Ex_Theo_A_th72] | 98.3
11 | AGUAGUUGGACGGCCGCCACUAGAACGCCUUUGCCAAAGGCAGAGGACUAGAGUGAUGUUCUAGCUAGGACCGGGUCCAACUACA [Omei KL Tryp B SS A v4] | 232
12 | AAGUGUCAUUAGACACAGACUACAAUACGCUAGGAUAUGCUGAUAAGCAGAAGGAGUGAUGUUCCUUUCAAGUAGUCAAUUAAAU [FmnAX 22 Mat Inspired #SwitchBubble #StaticStem #K4Late] | 140
13 | CUGGGUUGACGAAAAGUCAACAAAUGAGAAGGAGCGCACGAAAGUGCAGGUAGGUCGCUCAGUCCAGUGAUGUUGGAUCAUCCAG [#SwitchBubble 10 #K4Late] | 602
14 | GGAGAGAACUGAAGGAGCGGCAAGAGAGAAGGAAAUAUAGUGAUGUUAUAUAAGAGAGAGAGCCAGGUAGGUCGCAGAGGGAGGA [ExArgB.A] | 153
15 | AGAACUGUCUGGGAUACCAGCCGAGGAGUGAUGUUCCGGCUCGACGAAACGUCGAGCCACGGCCCUUGGCAGCUCAGACAGUUCA [#21 K4 Theophylline B Same State] | 332
16 | UUUUAAAUGUCUGAUACCAGAGAAAAUUUAUGUAGUGAUGUUAUAUACAAAAUAAAUAAGCUCCCUUGGCAGCAGUAUUAAUUUU [AstrosExc-TheB#7] | 449

Row | Sequence | apparent KD of K4 kissing-loop reporter [nM]
17 | AGGGAUGAUGGAUAAAUAAACAAAAGGGAUACCAGUCAAAUAAUAGGCCCUUGGCAGCUUUAGAUCAGUGAUGUUGAAGAUAUUG [Theophylline A Same State; Euphoria Solution] | 127
18 | CCUAUCUCAUACGAUACCAGUCGUCGAGUGAUGUUCGAUUAAAUAUAUUUGCCAAAUAACGACCCUUGGCAGCGUAUGGGAUAGG [Ex Theophylline B K4 17] | 328
19 | GUACGGCGGGCGGCCGCCACUGGUAUACGAGUGAUGUUCGGAUAUACGUGAUGUAUGGUAAUUAACAGGACCGGGUCAGGGCCGG [whbob_SS_Tryp_B_t23] | 158
20 | AUUUAUUCGAGUGAUGUUCGUGAUUUUUCAGAGGAUAUGCGUAAUAGCAGAAGGCUGUAUUUAUAUAUAUUUUGAUUUUUUUAAA [JR_Nu3_ExcFMNA_Sub024] | 122
21 | CGAGUGAUGUUCGUUUAUUACUCUGUUUGACAGGAUAUGCGGAAACGCAGAAGGGUCACCUUUGAGUUAGACGGAGUUAUUUUUU [Ex FMN A 22] | 359
22 | UUACUACCCAGUGAUGUUGGGUAGCGGCGGCGAGGACCGGUACGGCCGCCACUCGGCGCACGGGAGUGAUGUUCCUACCGUUAGG [Same state Tryptophan A GF 8] | 455
23 | UGAUACCAGACUGAUACCAGCCAGUGAUGUUGGCUAAAACCAAAAGCUGGCAAAGCCAGCGGCCCUUGGCAGCAGUCUGGUAUCU [TheoBX 1 #SwitchBubble #StaticStem] | 694
24 | AAAUUUUAAAGUGAUACCAGACAUCUCAAUUACAUUAAUAAAGCUAAGUGAUGUUUAGCAGUCCCUUGGCAGCACAAUUUAAUUA [JR_SSTheophyB_Sub011] | 334
25 | AAUAAAAUCACGGCCGCCACUGAAUAAUUACGAAGUAGUGAUGUUACUUCACAUAUCUUAUUUAACAGGACCGGGUGAAUAUUUA [#16 K4 Tryptophan B Exclusion] | 66.3
26 | UCUAACAAAUCGGCCGCCACUGAAAUAACCCAGGAGUGAUGUUCCAUCGUCCUAGACUACUCUUCCAGGACCGGGAUCUGUGUUC [theeternabot_exclusion_KL_Trp_B_25] | 348
27 | GGUGACAACCAGAGGUGAUGUAUAGUAUCGCGAGGACCGGUACGGCCGCCACUCGUGAAGAGAAAGGAGUGAUGUUCCGUAAUGG [Kazoo C7] | 276
28 | GCAAUCCCGGCGGCCGCCACUUUCAUACCAGUGAUGUUGAGUAGGAAAUGGAAUAUGCGCUGAAUAAGGACCGGGCCUAAGGAGA [theeternabot_exclusion_KL_Trp_B_47] | 216
29 | GGAGGGAUCUCGGCCGCCACUCGUAAGAAAUGGGCCUCAGGGAUAUAGUGAUGUUAUGUAAAGAAGAGGACCGGGAGAAAGAAGG [ExTryptoB.Dd] | 208
30 | UUUCUUUUUUUGAUGUUUUUUGUAUAAUGGCAGGAUAUCGUAGAUGCGAGAAGGGCUUUUAUGCGUUAUGAGUGAUGUUUGUAGG [aaxazvmullin] | 270
31 | CUAUGGAAACAUAGUGAUCGGGAAACCGAUACCAGUAUGGAAACAUACCCUUGGCAGCGGAAUGAUCUAACGGAGUGAUGUUCCG [Theophylline A K4 23] | 456
32 | UUUUAAAUGUCUGAUACCAGAGAAAAUAUAUGUAGUGAUGUUAUAUACAAAUUGAAUAAGCUCCCUUGGCAGCAGUAUUAAUUUU [AstrosExc-TheB#11] | 643

Same assay, conditions: Eterna round: R107; input ligand: none

Row | Sequence | apparent KD of K4 kissing-loop reporter [nM]
33 | AAGUGUCAUUAGACACAGACUACAAUACACUAGGAUAUGCUGAUAAGCAGAAGGAGUGAUGUUCCUUUCAAGUAGUCAAUUAAAU [FmnAX 21 Mat Inspired #SwitchBubble #StaticStem #K4Late] | 143
34 | GGAUCCACCAGUGAUGUUGGAGAAAACUUCAAGGAUAUGACGAAAGUCAGAAGGUGGUAGACUGGACAAAGUCCGGUGGGAUCCA [FmnA10 U29+G78] | 264
35 | GGCAUAGUCUCAACGUGUGGUUGGGUUGGGAAGGAUAUUUGAUCGAAAAGAAGGUCCCGCAUUGAGUGAUGUUCAAGGGCUCCAA [theeternabot_exclusion_KL_FMN_A_26] | 262
36 | CCAGGAUGAUGAGGAUGAUGAAUUACUGAAGGAGCGCAUAUGGUUGCAGGUAGGUCGCGGUGAAUAAGUAUAGUGAUGUUAUGCC [SSArgA.X] | 594
37 | GCCGUAGAUGGAAGGAGCGUGGUGGACUCGUGAAGUGAUGUUUCAAGUCGAUAUGCCCAACCACAGGUAGGUCGCCAUCUACGGC | 169
38 | GUAGGAUGAGGAGGAGGAUGAAUUACUGAAGGAGCGCAUAUAAAUGCAGGUAGGUCGCGGUAAAGAAGUAUAGUGAUGUUAUAUA [SSArgA.G] | 580
39 | UGGUGCCAUUGGCGGGUAGAUAGUGGUGGCAAGGAUAUGUGAGCGAACAGAAGGUGCAUCAAGUUCAGUGAUGUUGGGCUCGAUU [theeternabot_sameState_KL_FMN_A_20] | 275
40 | AUCGAUAUCAGAGGAUAUGCUUAAUUGAUUUAUUAUUAUUUAUUAUGCAGUGAUGUUGCAUUUUUUGCAGAAGGCUGAUUUCGAA [JR_SSFMNB_Sub022] | 126
41 | UGUCAUGGAAACAUGAACGUUGAUGUUCGACGAGGACCGGUACGGCCGCCACUCGAGUAAUAGUCAGUGAUGUUGACUGGGCUAA [KL-SSTryp-A form1 sub2] | 219
42 | UAUAUAGUGACGGCCGCCACUAUAUUAAUGUUUUUGUUAGAGUGAUGUUUUGAUUAAUAUUUUUAUAGGACCGGGUUAUAUGUUA [xzzxmullin] | 634
43 | ACAGCGAGCAUUAACGCGCUCGCAGGUUGCAAGGAUAUAUUUCGUCAUAGAAGGUGCUAGACCAUAAGUGAUGUUUGUGGAUAUA [theeternabot_sameState_KL_FMN_A_16] | 503
44 | AGGCAAUAUGCGGCCGCCACUUUCAGUGAUGUUGAGACGCGGAAUGUUGUAUAAUAUCGCCACGAAAGGACCGGGCAAGGGAAAG [theeternabot_exclusion_KL_Trp_B_5] | 542
45 | GGCAGUGAUGUUGCCAGUGGCAGAUUGGAAGGAGCGUGGUGAGACACAGGUAGGUCGCUAAUUGAAGUUGCUGUCACUAAAAUGC [whbob_Ex_Arginine_A_2t131] | 307
46 | GGAGGCUAUGCAGGAUAUAGUCGGUUGAGUGAUGUUUAACGACUAAACCUUCUAAGUCACAGCCCGCUAGAAGGGCAUAGCCUCC | 258
47 | GCAUCGAUGGCAGGAUAUAGGUUCGUGGAGUGAUGUUCCAUAGCCCGAGUGAUGUUCGUUAUCCGCCUAGAAGGGCCGUGGAUGC [whbob_Ex_FMNB__2th215] | 297
48 | CAGAACUUAUAUAGAAACUAUAUAAGAGAUACCAGUCAAAUUAAAGACCCUUGGCAGCUCAGGCGAGUGAUGUUCGCAGGCUAAC [Astros-Gfrank-modulation#1] | 102
49 | GGCUUGCCAGUGAUGUUGGCAUAAACUGAAGGAGCGCGUGAAAACGCAGGUAGGUCGCAGAACCUUGCCAACUAUUUUAUUUGCC [Ex Arginine A K4 24] | 212
50 | GGGUCAGUCUGAAGGAGCGGCCAGACAGAGCAGUGAUGUUGCUCCUCCGGAAACGGUGUCGGCCAGGUAGGUCGCAGAUUGGCUC [Dienralais mod v1] | 137
51 | UGUCAUUGGUCGGCCGCCACUUCGUGUGGAGUGAUGUUUUGUAGGUUGUGUUGAAAGGUAUGGUGAAGGACCGGGACCGAUGACU [FiskerMod 20 - Jieux - Same State - Tryptophan B] | 496
52 | AUGUCUGAUAGCAGUGAUGUUGCUUCGGAUACCAGACGAGAUCAUGUCCCUUGGCAGCUGACACGGCACGUGCUAGGUUAGAUGA [whbob_Ex_Theo_A_th72] | 115
53 | AGUAGUUGGACGGCCGCCACUAGAACGCCUUUGCCAAAGGCAGAGGACUAGAGUGAUGUUCUAGCUAGGACCGGGUCCAACUACA [Omei KL Tryp B SS A v4] | 308
